This passage reports IC50 results from patent US20100285988A1.

Read-outs that look alike come from different tables or passages of the source.

The target in experiment [1] is T1, γ-secretase (human; HeLa cell membrane / solubilized HeLa membrane; endogenous in HEK293 cells) (human), P49768. The following applies: modification not given.
The target of experiment [2] is T1, γ-secretase (human; HeLa cell membrane …). The conditions noted are these: modification not given. The source holds these as a separate data set.

Molecule KLVFFAED gave an IC50 in experiment [1] of 14 µM.

In experiment [2], LVFFAEDV displayed an IC50 of 8.9 µM.
